Kd data for two molecules are collected here from US20190046655A1 (ARBELE, published 2019).

For this experiment, the target named is T1, cadherin-17 (CDH17), ELISA antigen (UniProt Q12864 23-787, limits assumed).
T1 construct: also called liver-intestine cadherin
Description: ELISA. A general note: An ELISA detects its analyte on a solid surface through an enzyme-linked reagent.

In general, Kd refers to the concentration at which binding is half-saturated. A high value points to a looser complex.

B1: Lic3 scFv (scFv, V domains shown)
VH: EVQLVESGGGLVKPGGSLKLSCAASGFSFSDYYMYWVRQAPEKRLEWVASISFDGTYTYYTDRVKGRFTISRDNAKNNLYLQMSSLKSEDTAMYYCARDRPAWFPYWGQGTLVTVSA
VL: DVLMTQIPLSLTVSLGDQASISCRSSQSIVHSNGNTYLEWYLQRPGQSPKLLIYKVSNRFSGVPDRFSGSGSGTDFTLKISRVEAEDLGVYYCFQGSHVPLTFGAGTKLELK
notes: Tested as a single-chain Fv; also called scFv lic 3; mouse CDH17 antibody Lic3 scFv
For the molecule B1, the Kd was 11.9 nM. That is a double-digit nanomolar value.

B2: Lic5 scFv (scFv, V domains shown)
VH: EVQLEESGGGLVKPGGSLKLPCAASGSSFSDFYMYWVRQTPEKRLEWVASISFDGTYTYYTDRVKGRFTISRDNAKNNLYLQMSSLKSEDTAMYYCARDRPAWFPYWGQGTLVTVSA
VL: DIVLTQTTLSLNVSLGDQASISCRSSQSIVHSNGNTYLEWYLQRPGQSPKLLIYKVSNRFSGVPDRFSGSGSGTDFTLKISRVEAEDLGVYYCFQGSHVPLTFGAGTKLELKR
notes: Tested as a single-chain Fv; also called scFv lic5; mouse CDH17 antibody Lic5 scFv
Regarding B2, the Kd amounted to 22.1 nM.
